Source: publication PMC12418388 (2025)

Biological target: T1, DDX6 (Homo sapiens, UniProt P26196)
T1 chain: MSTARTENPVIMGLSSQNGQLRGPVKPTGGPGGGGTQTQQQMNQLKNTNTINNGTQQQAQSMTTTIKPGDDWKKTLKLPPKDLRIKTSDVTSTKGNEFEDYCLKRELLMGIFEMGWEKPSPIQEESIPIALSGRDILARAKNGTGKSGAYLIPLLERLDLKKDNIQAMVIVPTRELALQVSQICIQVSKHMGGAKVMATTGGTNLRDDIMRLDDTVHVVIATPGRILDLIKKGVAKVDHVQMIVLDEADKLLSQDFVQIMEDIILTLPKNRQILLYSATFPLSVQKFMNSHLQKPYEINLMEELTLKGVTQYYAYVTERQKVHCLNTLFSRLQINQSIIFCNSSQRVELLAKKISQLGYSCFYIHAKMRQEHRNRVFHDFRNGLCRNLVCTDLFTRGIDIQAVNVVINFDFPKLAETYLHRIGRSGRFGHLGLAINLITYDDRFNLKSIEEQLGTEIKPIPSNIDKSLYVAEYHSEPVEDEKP
Assay: BLI

B1: DDX3X (protein)
chain: SHVAVENALGLDQQFAGLDLNSSDNQSGGSTASKGRYIPPHLRNREATKGFYDKDSSGWSSSKDKDAYSSFGSRSDSRGKSSFFSDRGSGSRGRFDDRGRSDYDGIGSRGDRSGFGKFERGGNSRWCDKSDEDDWSKPLPPSERLEQELFSGGNTGINFEKYDDIPVEATGNNCPPHIESFSDVEMGEIIMGNIELTRYTRPTPVQKHAIPIIKEKRDLMACAQTGSGKTAAFLLPILSQIYSDGPGEALRAMKENGRYGRRKQYPISLVLAPTRELAVQIYEEARKFSYRSRVRPCVVYGGADIGQQIRDLERGCHLLVATPGRLVDMMERGKIGLDFCKYLVLDEADRMLDMGFEPQIRRIVEQDTMPPKGVRHTMMFSATFPKEIQMLARDFLDEYIFLAVGRVGSTSENITQKVVWVEESDKRSFLLDLLNATGKDSLTLVFVETKKGADSLEDFLYHEGYACTSIHGDRSQRDREEALHQFRSGKSPILVATAVAARGLDISNVKHVINFDLPSDIEEYVHRIGRTGRVGNLGLATSFFNERNINITKDLLDLLVEAKQEVPSWLENMAYEHHYKGSSRGRSKSSRFSGGFGARDYRQSSGASSSSFSSSRASSSRSGGGGHGSSRGFGGGGYGGFYNSDGYGGNYNSQGVDWWGN
Kd: 389 nM
